Measured values from publication PMC11426443, “Signal-sensing triggers the shutdown of HemKR, regulating heme and iron metabolism in the spirochete Leptospira biflexa” (PLOS ONE, 2024).
Blank lines part the entries; values can stand above or below the molecule they belong to.

What was measured:
HemKΔ80 = target: T1, HemKΔ80 (Leptospira biflexa, UniProt A5JUR4); test: autophosphorylation, PhosTag-SDS-PAGE; format: biochemical; conditions: 5 mM ATP, 10 mM MgCl2; phosphoryl transfer to HemK H98
T1 construct: gene LEPBI_I1423; soluble cytoplasmic catalytic region lacking first 80 residues (periplasmic and transmembrane); N-terminal His-tag cut by TEV; E. coli Rosetta-gami(DE3)
T1 sequence (A5JUR4 81-295): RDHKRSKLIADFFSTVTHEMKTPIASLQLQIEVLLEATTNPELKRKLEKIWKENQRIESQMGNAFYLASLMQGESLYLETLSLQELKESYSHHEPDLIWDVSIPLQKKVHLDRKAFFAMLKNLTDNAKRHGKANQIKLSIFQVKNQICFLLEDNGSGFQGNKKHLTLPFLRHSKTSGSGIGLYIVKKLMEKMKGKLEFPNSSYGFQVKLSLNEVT

[1] = target: phosphorylated HemRFL (full-length HemR, phosphorylated) (Leptospira biflexa); test: SEC; 600 uM HemRREC or HemRFL incubated with 5 mM acetyl phosphate, 10 mM MgCl2; dimeric phosphorylated form separated from monomeric non-phosphorylated form on Superdex 10/300 75 prep
[2] = target: phosphorylated HemRREC (receiver domain of HemR, phosphorylated) (Leptospira biflexa); test: as above

Molecule: Nc1ncnc2c1ncn2[C@@H]1O[C@H](COP(=O)(O)OP(=O)(O)OP(=O)(O)O)[C@@H](O)[C@H]1O [ATP]
- autophosphorylation, PhosTag-SDS-PAGE (HemKΔ80): possesses ATP-dependent autokinase activity (Fig 1A)

- stoichiometry N [1]: 2
Molecule: phosphorylated HemRFL (full-length HemR, phosphorylated) (natural protein)

- stoichiometry N [2]: 2
Molecule: phosphorylated HemRREC (receiver domain of HemR, phosphorylated) (domain or fragment)
